# B1: 20 mer peptide corresponding to the C-terminal 20 residues of E. coli Pol III α subunit (peptide)
# chain: RLLNDLRGLIGSEQVELEFD
# B2: C-terminal peptide corresponding to Staphylococcus aureus Pol C (peptide)
# chain: DELGSLPNLPDKAQLSIFDM
# B3: Peptide corresponding to C-terminal residues of Streptococcus pyogenes Pol C (peptide)
# chain: DEMGILGNMPEDNQLSLFDDFF
# Assays:
# [1] = biological target: Escherichia coli β clamp (beta subunit of DNA polymerase III holoenzyme), P0A988; experiment: fluorescence (fluorophore-labeled β titrated with peptide); ±0.4; labeled β; conditions: chains peptide; modification not given
# [2] = biological target: Streptococcus pyogenes β clamp; experiment: fluorescence anisotropy; labeled peptide; conditions: chains peptide; modification not given
Binder,Kd [1] [nM],Kd [2] [nM]
B1,2700,–
B2,–,14000
B3,–,2200

# Source: patent US20090004675A1, “Method of Identifying Compounds for Bacterial Growth Modulation” (priority 2004, published 2009)
